From patent publication US6706762
Where “and” joins values, the source holds several entries; their conditions need not be identical. Equal values may be shown once.

Target: GAL-C-SMRT (yeast) (UniProt P04386)
Test: cell-based or functional assay

VP16-PLZF (from UniProt Q05516 1-673) was tested, and the UAS reporter expression, mammalian two-hybrid was 25 fold.

In the case of “VP-PML-RARα (from UniProt P29590 1-552; P10276 61-462)”, the fold lower sensitivity to ATRA than the SMRT/RARα interaction, mammalian two-hybrid was 100 fold and 200 fold.
